Assay results from the RNAGym collection of RNA variant scans (doi:10.1073/pnas.2313332121).

B1: TPR t1 (parent)
chain: GACCAAUCUGCCCUCAGAGCUCGAGAACAUCUUCGGAUGCAGAGGAGGCAGGCUUCGGUGGCGCGAUAGCGCCAACGUCCUCAACCUCCAAUGCAUCCCACCACAUGAUGAUGCCUGAAGAGCCUUGGUUUUUUG

Variants of: B1
Assay: polymerase ribozyme fitness, log enrichment relative to wild type (log ratio); higher = more active; in vitro selection for triplet polymerase activity
Method in brief: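 Genotype fitness is the logarithm of its enrichment divided by wild-type enrichment, using inverse-variance-weighted averages of replicates. That logarithm is base 2. Enrichment was measured by Illumina sequencing of input and output libraries from one triplicate in vitro selection round, with frozen incubation at −7 °C, on PCR-built, transcribed mutant libraries of each subunit of a heterodimeric triplet polymerase ribozyme, retaining genotypes with ≥10 input reads and ≥1 read per output.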

| Variant | polymerase ribozyme fitness (log ratio) |
| --- | --- |
| C4U G60A C86U G93A G117A U133A | -3.03 |
| G44C C88G G117A C123G | -2.7 |
| G47U G110C | -5.49 |
| C73U A75U U87A U92A | -4.13 |
| G65A U112A | -2.74 |
| C20A A41U G71A | -4.76 |
| A16U C31U | -4.77 |
| G120A G135U | 0.435 |
| C34U C73A C102U C123A | -3.14 |
| U7C A46U C76G | -0.0822 |
| G52U U67G C101U G120C | -6.94 |
| G36U G44U | -2.24 |
| C12A G120C | 0.84 |
| A46C G69C U81C U112G | -4.07 |
| A29U G42U G52A U109G | -2.63 |
| G60U G113A | -0.847 |
| C56U C73U U109A | -4.36 |
| U21G C72G | -1.39 |
| G42C G122A | -2.41 |
| C22A C115U | -6.25 |
| C72U C82A | -0.812 |

| Variant | polymerase ribozyme fitness (log ratio) |
| --- | --- |
| G48A C72U C101G U133A | -2.79 |
| G36U G60C A100U | -2.77 |
| C11G G58C C97A C104A | -4.9 |
| U14A A90G | -2.78 |
| C12G A29C | -1.57 |
| A5G A121C | 0.258 |
| U55G C72U U87C G107U | -4.49 |
| C53U G71U C89U C115U | -3.54 |
| C85G C88U C123A | -0.368 |
| A6C C97U | -1.01 |
| U59A C70U U112A | 0.172 |
| G45U G61C A66U | -3.49 |
| G71U U129G | -0.793 |
| G44U A66U | -2.13 |
| G51U A68C A91C G110C | -7.47 |
| G122A G128U G135U | -2.49 |
| C4G A6U C72G A84C C115A | -5.17 |
| A5G C80A | -2.34 |
| C115G A119G | 1.52 |
| G10U U30C U33C G71U C79U C101A C102G A111U | -7.18 |
| C82U G110A C115G | -5.29 |

| Variant | polymerase ribozyme fitness (log ratio) |
| --- | --- |
| C22G A75U C101U C123A G128C | -6.24 |
| C20G C49G | -5.11 |
| G51A A74G U131A | -1.77 |
| A18G U54A C62U C88G A111C G113C U125A | -3.53 |
| U9C G45C G48A A90C | -0.81 |
| A46U U59C C101U A121U | 0.445 |
| G65A G117U | -6.21 |
| A16G G51C | -5.21 |
| C40U C53U A121G | 1.58 |
| C15U G25U A26U G51A C99U U112G C114G G135A | -6.73 |
| U55C G57A U106A G110U C123U | -3.04 |
| G47U U130G | -2.4 |
| A46G C72A | 0.745 |
| C80U C98G | -6.73 |
| C11U A37C G45U G58A U96A C101A | -2.32 |
| C64G C88U | -5.96 |
| C15A U92G | -4.55 |
| U54C U96A | -0.835 |
| C8U A50U G117C | -3.99 |
| U9A U21A G45C C70A C82U U116G U132C G135C | -1.83 |
| C40G G61U | -2.33 |

| Variant | polymerase ribozyme fitness (log ratio) |
| --- | --- |
| A29U G45C C115A U133A | -3.42 |
| A41U G48U C104A A121G G122A | -3.77 |
| A2C U21A | -2.19 |
| G10U G60A C123G C124A | 3.33 |
| A29U G44A C101U | -4.87 |
| A18C A121C | -1.86 |
| C72U U130A | -1.42 |
| A26U C49U A84C C124G | -2.34 |
| G58C C85U G120A | 0.436 |
| C34A U112G U130A U133A | -3.74 |
| C53A C64U C99U U133G | -4.1 |
| C8U C56U C70U C73A | -2.03 |
| G61C G120U | -1.08 |
| G61U U112A U130A | 1.31 |
| G69U C99A U130G | -3.92 |
| C12A G17A G61U | -4.75 |
| A5G C12U G39U | -0.29 |
| G57U C62A U125A | -4.41 |
| C11G C13U C70G C97A A103C C123U | -7.22 |
| C20U G60U U78A G113C | -2.3 |
| A41C U59G C79U C124A | 0.881 |
